According to publication PMC6065417, “Neutralization of Junín virus by single domain antibodies targeted against the nucleoprotein” (Scientific Reports, 2018):

Columns and labels:
Conditions in all cases: one partner purified
[1] = target: T1, Junín virus nucleoprotein (N) in Candid#1-infected cells (Junin mammarenavirus, Candid#1, UniProt F4ZL09, strain); assay: co-IP
T1 construct: also called viral N; Candid#1N

[2] = target: T2, Junín virus nucleoprotein (N) of strain Candid#1, expressed from a plasmid (Junin mammarenavirus, Candid#1, UniProt F4ZL09, strain); assay: immunostaining of cells or tissue
T2 construct: also called N from Candid#; Candid#1N; source: Vero cells, transfected (Fugene), in fixed and permeabilized cells

[3] = target: T3, Junín virus nucleoprotein (N) of strain XJCl3, expressed from a plasmid (Junín virus (Junin mammarenavirus), …, UniProt F4ZL09, strain); assay: immunostaining of cells or tissue
T3 construct: also called N from XJCl3

Measured: binding result

B1: VHH 2.3 (VHH)
VHH: QVQLVESGGGLVQPGGSLRLSCAASGSIDSINAMAWYRQAPGKERELVAGISKNGIPWYLDSLKGRFNVSRDNAKNTLYLQIHNLKPEDAAMYYCASSSRTIATTTNEFDFWGQGTQVTVSS
notes: source: E. coli, periplasmic extract, purified (Ni-NTA); not shown: His6, C-terminal, kept
binds: all assays above
